Test results reported in publication doi:10.1101/638080.

Target: Chloride Intracellular Channel 1 (CLIC1), human, with N-terminal twin strep tag (human) (UniProt O00299)
Assay: mass photometry

stoichiometry N: 6
Substance: Chloride Intracellular Channel 1 (CLIC1), human, with N-terminal twin strep tag (from UniProt O00299 1-241) (natural protein)
